The record followed here is patent US20250034594A1, “RNA-GUIDED GENOME RECOMBINEERING AT KILOBASE SCALE” (THE BOARD OF TRUSTEES OF THE LELAND STANFORD JUNIOR …, priority 2021, published 2025).

Holding throughout (type): cell-based
The test system of test [1] is gene editing with Cas9. Nature of the test: Screen of 322 new SSAP proteins, gene editing activity with Cas9 (Table 5). The arrangement: Cas9 with SSAP activity: scale not given here. The procedure, abridged: (§1)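 Read-out is gene editing activity. Candidates come from sequence data mining, are made synthetically, and are tested alongside either nuclease-active Cas9 or catalytically dead dCas9.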

The subject of test [2] is gene editing with Cas9 and dCas9. Kind of test: Screen of 322 new SSAP proteins, activity across all experiments (Cas9 and dCas9, Table 5). The arrangement: scale not given here. The procedure, abridged:
as §1

Test [3] relates to gene editing with dCas9. Nature of the test: Screen of 322 new SSAP proteins, gene editing activity with dCas9 (Table 5). Also noted: dCas9 with SSAP activity: scale not given here. The procedure, abridged: as §1

B1: SSAP_164: SEQ ID NO: 333; Clostridium fimetarium (protein, listed as Clostridium fimetarium)
chain: ETIDIKQELASQAQTDSKKEVKLTKAMSIAEMIKAMMPEIKRALPSMITPERFTRIALSALNNTPELQACTPMSFISALLNAAQLGLEINSPLGHAYLIPYKNKGVLECQFQIGYLGLIALAYRNELMQTIQAQCVYENDEFLYEYGLNPKLVHRPATSDRGEPVFFYGLFKMINSGFGFCVMSKQEMDEFARTYSKGLASSFSPWKTSYNEMAKKTVIKQALKYAPIKTDFQKALSTDESIKYAISEDMTEAVNEIVSQNTEVA
B1: in test [1], the “Cas9 with SSAP activity” value was −2.221 and the “Cas9 with SSAP activity (normalized)” value is −0.998. In test [2], the “Activity across all experiments” value is recorded as −3.266. Besides, in test [3], the “dCas9 with SSAP activity” value is −4.310 and the “dCas9 with SSAP activity (normalized)” value was −0.557.

B2: SSAP_226: SEQ ID NO: 395; Companilactobacillus furfuricola (protein, listed as Companilactobacillus furfuricola)
chain: VNNLAKLPIQTLVKEPKIVEKFESVLGNKSAQFVTSLINVVNSNQSLKNVDQMSVVASAMVAASLDLPINQDLGYMWLVPYGGKAQPQMGYKGYIQLAQRTGQYKHLNAVAVYEDEFQSYNPLTEQLDYEPHFKDRDSSEKPVGYVGYFELTSGFEKTVYWTRKQIDDHRQSFSKMSGKSKPSGVWATNFDAMALKTVLRNLISKWGPMSVEMQKAYESDEHATTISANDIKDIEVQEQEPATDVSQLINGSATEVNVNDSTTNSKDSE
For B2, in test [1], the “Cas9 with SSAP activity” value is on record as −1.843 and the “Cas9 with SSAP activity (normalized)” value is given as −1.377. For the same molecule, the “Activity across all experiments” value in test [2] was −3.017. In test [3], the “dCas9 with SSAP activity” value was −4.191 and the “dCas9 with SSAP activity (normalized)” value was −0.610.

B3: SSAP_58: SEQ ID NO: 227; Pirellula sp. SH-Sr6A (protein, listed as Pirellula sp.)
chain: SEATKEAKPETAIAKKPNGIKDWLKSDALKTQIASVAPKHMAPERVMRIALNAVSRTPKLADCTPESFMRCLLDLSSWGLEPDGRHAHLIPYGTECTLVLDYKGLVTLAYRSGWVKKIHADVVFEGDIFVYSLGTVCQHIPWEFRDDANKPEHKGHFRAAYCVVTMADGIEKHEVMTASEIDAIKAKSRSGNSGPWKDHYTEMAKKTVYRRASKWLPLSPEQADAMERDDDRIIDAVSVAVTQRLSKAAMPLIGANETGDTE
In the case of B3, in test [1], the “Cas9 with SSAP activity” value was −1.710 and the “Cas9 with SSAP activity (normalized)” value is −0.437. Besides, in test [2], the “Activity across all experiments” value is on record as −3.018. In test [3], the “dCas9 with SSAP activity” value was −4.326 and the “dCas9 with SSAP activity (normalized)” value is reported as −0.647.

B4: SSAP_277: SEQ ID NO: 446; Nocardia terpenica (protein, listed as Nocardia terpenica)
chain: SSIAAAAESAEVTPASIINKYRDDIATVLPPKLRERIDRWIRLAIGAVNSNPELISRVRADQGASMMQALMKCAALGHEPGSGLFHLVPKGSRIEGWEDYKGILQRIDRSGVYARTVIGVVYANDEYSYDQNVDERPRHVRATGDRGEPISSYAYAVYPSGAITTVAEATPEQIASSKSKARGADNAASPWRAPGAPMHRKVAVRLLEKHVATSAEDRREPISRSAANDVVIDATADYYQEP
Turning to B4, in test [1], the “Cas9 with SSAP activity” value is recorded as −1.480 and the “Cas9 with SSAP activity (normalized)” value is on record as −0.437. Besides, the “Activity across all experiments” value in test [2] is −2.958. In test [3], the “dCas9 with SSAP activity” value is reported as −4.435 and the “dCas9 with SSAP activity (normalized)” value was −0.734.

B5: SSAP_250: SEQ ID NO: 419; Streptococcus pseudoporcinus (protein, listed as Streptococcus pseudoporcinus)
chain: ANQLTVVNTLQSDAVKEKFEAVMGEKANGFVSSVLSVVTNNNLLAKADFNSVYTSAMKAAVLDLPVEPSLGMAYIVPYKGKAQFQIGYKGLIQLAQRSGKVTKLNSGKIYKGQFKSYNALSEELDIDDIYTPKEDEEVVGYFGYMKLSNGFEKITYWTKERVEKHGKKYSQSYDSKFSPWQTNFDAMAEKTVLKSILSTYAPLTIEMQNANDFDNGKNTGIEPLEVKDVTPENDNESLLSDLLEDEPSVDAETGEIMENTELDLDYGSINAK
In the case of B5, in test [1], the “Cas9 with SSAP activity” value was −4.531 and the “Cas9 with SSAP activity (normalized)” value was −1.341. Besides, in test [2], the “Activity across all experiments” value is reported as −4.402. Moreover, in test [3], the “dCas9 with SSAP activity” value is −4.273 and the “dCas9 with SSAP activity (normalized)” value was −1.117.

B6: SSAP_313: SEQ ID NO: 482; Pedobacter nototheniae (protein, listed as Pedobacter nototheniae)
chain: STEQSQQQTAARVPAKFQEGTVDSILKRVSDFQNTGELVLPANYIPENAVRAAWLMLMETTDRNDKPAIEVCTKESIANAFLEMVTKGLSVVKKQCYFVVYGNKLSLEDSYIGKIAIAKREAGVKEVNAVTIYEGDIFKYENDIETGRKRILEHKQELKNINPDKIVGA
Consider B6, for which, in test [1], the “Cas9 with SSAP activity” value is on record as −0.432 and the “Cas9 with SSAP activity (normalized)” value is on record as −0.643. Also, the “Activity across all experiments” value in test [2] is reported as −2.345. In test [3], the “dCas9 with SSAP activity” value is reported as −4.259 and the “dCas9 with SSAP activity (normalized)” value is listed as −1.301.

B7: SSAP_232: SEQ ID NO: 401; Lactococcus fujiensis JCM 16395 (protein, listed as Lactococcus fujiensis)
chain: KSAPVQARFQEVLGKKSSGFVSSLLTVVNNNNLLKRATPDSIMTAAMKAATLDLPIEPSLGFAYIIPYGQEAQFQIGYKGLIQLALRSGQITGLNSGIVYKSQFISYDPLFEELEIDFMQPEDEVVGYFASMKLSNGFMKVVYWTKARVENHKKRFSKAGAKSPWATDFDAMAQKTVLKAMISKFAPLSQEMQIAVIADNESETLEPKDVTPEQPLISIDEPKENENSQSQISIPEDQAPQQENEEFVEELFPVGQA
On to B7, for which, in test [1], the “Cas9 with SSAP activity” value is listed as −1.056 and the “Cas9 with SSAP activity (normalized)” value is −0.259. Further, the “Activity across all experiments” value in test [2] is given as −2.757. Further, in test [3], the “dCas9 with SSAP activity” value is recorded as −4.457 and the “dCas9 with SSAP activity (normalized)” value is reported as −0.721.

B8: SSAP_76: SEQ ID NO: 245 (protein)
chain: ANELGIFSVDNLNMTTIKQYLDGGGKASDAELVLLINLCKQNNMNPFMKEVYFIKYGNQPAQIVVSRDFYRKRAFQNPNFAGIEVGVIVLNKDGVLEHNEGTFKTHEQELVGAWARVHLKNTEIPVYVAVSYDEYVQMKDGHPNKMWTNKPCTMLGKVAESQALRMAFPAEFSGTYGEEELPEPEKEPREVNGVKEPDRAQIESFDKEDYAARKIEELKEKAQPQKEVVKETGEVIDEITAEDF
With B8, in test [1], the “Cas9 with SSAP activity” value is −0.308 and the “Cas9 with SSAP activity (normalized)” value was −0.267. The “Activity across all experiments” value in test [2] is listed as −2.282. Besides, in test [3], the “dCas9 with SSAP activity” value is −4.256 and the “dCas9 with SSAP activity (normalized)” value was −0.591.

B9: SSAP_14: SEQ ID NO: 183 (protein)
chain: TTALQTLTNKLAERFEMGDGSGLVETLKSSAFAGATVSDAQMIALLVIANQYQLNPWTKEIYAFPGGNGGLTPIVGVDGWVRIINREPQYDGMEFHFTDDYSACTCTIYRKDRSKPIVVTEFMGECKKSSPAWNSHPKRMLRHKAMIQCARLAFGFTGIYDQDEAERIAENEKPPKNITPQNNVVETTAVELISEEQLSQIRQLMQVTGTEEAKILAYIGVQALNQIPKSQAEAVIKKLNLTLDKQNAEKADNGESVGEEIPL
On to B9, for which, in test [1], the “Cas9 with SSAP activity” value was −0.331 and the “Cas9 with SSAP activity (normalized)” value is given as −0.351. In test [2], the “Activity across all experiments” value was −2.297. Also, in test [3], the “dCas9 with SSAP activity” value is recorded as −4.263 and the “dCas9 with SSAP activity (normalized)” value was −0.702.

B10: SSAP_272: SEQ ID NO: 441; Clostridium cadaveris (protein, listed as Clostridium cadaveris)
chain: ATNSSLKNQLSKKENVTIGNTMQGLLNNPKMKKRFEEILDKKAPQYMSSILNLYNGDTSLQKCEPMSVLSSSMIAATMDLPVDKNLGYAWIVPYKNKAQFQMGYKGYIQLALRTGQYKHINAIEIHEGELVNWNPLTEELEIDFTKKESDKIIGYAGYFELLNGFKKSTYWTKTQIENHRKKFSKSDYGWNKDFDAMAIKTVIRNMLSKWGILSIEMQNAYTADENIIKDSFIDDSENVSANIEDLVEADYTVNQDSLESKEEFEGTPLE
For the molecule B10, in test [1], the “Cas9 with SSAP activity” value is listed as 0.254 and the “Cas9 with SSAP activity (normalized)” value was 0.626. Further, the “Activity across all experiments” value in test [2] is 0.558. Besides, in test [3], the “dCas9 with SSAP activity” value was 0.863 and the “dCas9 with SSAP activity (normalized)” value is listed as 0.407.

B11: SSAP_299: SEQ ID NO: 468; Paenibacillus sp. JCM 10914 (protein, listed as Paenibacillus sp.)
chain: TMDYVTKIQDALDRELDAKHDALPSGFKKTRFSENCRAYVKDYKDLQKYDAEEVASVLFKGAVLGLDFLAKECHVITEGSALRFQTDYKGEMTLVKKYSVRPILDIYAKNVREGDDFREEISGGKPLIHFNPRAFNNSKITGSFAVALFTDGGMVYETMPAEEIESIREHYGKNPGSDTWEKSQGEMYKRTVLRRLCKTIEIDFDAEQSLAYEAGSSFEFDREQQPKKRSPFNPPEVEESEVLSNDGITETQ
B11: in test [1], the “Cas9 with SSAP activity” value was −4.631 and the “Cas9 with SSAP activity (normalized)” value was −0.809. The “Activity across all experiments” value in test [2] is −4.441. In test [3], the “dCas9 with SSAP activity” value is −4.250 and the “dCas9 with SSAP activity (normalized)” value is reported as −0.686.

B12: SSAP_291: SEQ ID NO: 460; Nocardia pseudobrasiliensis (protein, listed as Nocardia pseudobrasiliensis)
chain: SSIANAANASELTPASIVNRYRDDIAAVLPPKLQARIDRWLRLAIGAVNSNADLVDRVRADQGASMMQTLMKCAALGHEPGSGLFHLVPKGPRIEGWEDYKGVLQRIDRSGVYARVVVEVVHANDDYAYDPNLDDRPQHKRAAADRGEPVSAYAYAVYPNGAVTAVAEATPELIAASKAKARGADNASSPWRAPGAPMHRKVAIRQLEKFVATSAEDMREVAVRNAAPDVEDAPADYYQEP
Consider B12, for which, in test [1], the “Cas9 with SSAP activity” value is given as −4.531 and the “Cas9 with SSAP activity (normalized)” value is given as −1.341. Further, the “Activity across all experiments” value in test [2] was −4.494. For the same molecule, in test [3], the “dCas9 with SSAP activity” value was −4.458 and the “dCas9 with SSAP activity (normalized)” value is given as −1.272.
